Literature values in paper PMC2663039.
Where “and” joins values, the source holds several entries; their conditions need not be identical. Equal entries are not always repeated.

Tests used:
[1] = target: NRP1 (Homo sapiens) (UniProt O14786); experiment: SPR
[2] = target: NRP1 (Homo sapiens) (UniProt O14786); experiment: SPR (BIAcore)
[3] = target: NRP1 (Homo sapiens) (UniProt O14786); experiment: cell-based Scatchard
[4] = target: VEGFR2 (Homo sapiens) (UniProt P35968)
[5] = target: VEGFR1 (Homo sapiens) (UniProt P17948)
[6] = target: sVEGFR1 (sFlt-1, baculovirus-expressed) soluble isoform (Homo sapiens) (UniProt P17948)
[7] = target: sVEGFR1 (sFlt-1, HUVEC-derived) soluble isoform (Homo sapiens) (UniProt P17948)
[8] = target: sFlt-1 (baculovirus-expressed) soluble form (Homo sapiens) (UniProt P17948)
[9] = target: sFlt-1 (HUVEC-derived) soluble form (Homo sapiens) (UniProt P17948)

Sequence of UniProt P35968 (P35968 20-1356): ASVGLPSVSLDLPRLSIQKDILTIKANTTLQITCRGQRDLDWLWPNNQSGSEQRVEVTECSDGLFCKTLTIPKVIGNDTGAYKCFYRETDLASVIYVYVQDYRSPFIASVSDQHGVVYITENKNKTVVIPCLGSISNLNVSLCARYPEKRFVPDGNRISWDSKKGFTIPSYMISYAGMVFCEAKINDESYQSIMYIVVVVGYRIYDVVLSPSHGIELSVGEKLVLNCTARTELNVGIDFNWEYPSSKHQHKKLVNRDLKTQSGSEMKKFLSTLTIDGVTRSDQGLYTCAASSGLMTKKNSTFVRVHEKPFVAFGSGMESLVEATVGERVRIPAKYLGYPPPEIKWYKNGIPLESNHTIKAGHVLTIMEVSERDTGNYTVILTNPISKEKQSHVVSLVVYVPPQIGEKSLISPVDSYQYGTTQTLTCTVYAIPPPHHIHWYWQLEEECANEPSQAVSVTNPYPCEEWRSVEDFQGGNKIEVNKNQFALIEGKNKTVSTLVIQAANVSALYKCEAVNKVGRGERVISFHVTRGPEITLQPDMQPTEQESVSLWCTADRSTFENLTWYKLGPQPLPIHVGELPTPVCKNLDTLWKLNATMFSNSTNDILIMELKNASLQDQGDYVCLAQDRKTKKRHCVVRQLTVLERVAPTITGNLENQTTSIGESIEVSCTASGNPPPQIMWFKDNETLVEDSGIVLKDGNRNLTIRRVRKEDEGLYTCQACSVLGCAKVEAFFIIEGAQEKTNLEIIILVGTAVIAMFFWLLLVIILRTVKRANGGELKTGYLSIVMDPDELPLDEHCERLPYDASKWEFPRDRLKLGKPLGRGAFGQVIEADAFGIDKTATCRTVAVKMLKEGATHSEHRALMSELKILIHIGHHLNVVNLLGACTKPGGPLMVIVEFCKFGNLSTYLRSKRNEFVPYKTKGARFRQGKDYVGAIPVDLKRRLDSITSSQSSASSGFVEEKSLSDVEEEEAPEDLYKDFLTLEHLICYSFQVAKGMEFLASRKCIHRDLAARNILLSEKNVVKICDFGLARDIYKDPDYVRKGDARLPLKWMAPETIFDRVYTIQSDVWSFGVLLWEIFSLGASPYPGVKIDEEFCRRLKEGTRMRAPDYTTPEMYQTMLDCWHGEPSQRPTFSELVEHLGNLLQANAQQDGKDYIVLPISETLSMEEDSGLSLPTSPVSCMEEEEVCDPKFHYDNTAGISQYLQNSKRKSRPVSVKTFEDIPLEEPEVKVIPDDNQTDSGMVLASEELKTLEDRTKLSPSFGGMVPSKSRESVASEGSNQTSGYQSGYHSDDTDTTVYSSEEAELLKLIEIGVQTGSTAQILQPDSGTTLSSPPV

For Flt-1 ECD (from UniProt P17948), the Kd [1] is given as 1.8 nM.
For VEGF121 VEGF121 (from UniProt P15692), the Kd [1] is listed as 220 nM.
In the case of VEGF165 VEGF165 (from UniProt P15692), the Kd [1] is listed as 120 nM.
For “VEGF165 VEGF165 isoform (from UniProt P15692)”, the Kd [2] is listed as 25 nM and the Kd [3] is listed as 0.2 nM and 0.32 nM.
In the case of VEGF (from UniProt P15692), the Kd [4] is listed as 0.1 nM, the Kd [5] is listed as 0.0333 nM and the Kd [6] is listed as 0.02 nM. The Kd [7] was 0.01 nM, the Kd [8] was 0.02 nM and the Kd [9] was 0.01 nM.
